Reference: paper PMC4330387

Legend:
Sp1 (recombinant) = Sp1 (recombinant) (UniProt P08047 1-785); assay: EMSA
GST-ZFDBD-ZBTB2 = biological target: T1, GST-ZFDBD-ZBTB2 (human, UniProt Q8N680 254-468); assay: EMSA
T1 sequence: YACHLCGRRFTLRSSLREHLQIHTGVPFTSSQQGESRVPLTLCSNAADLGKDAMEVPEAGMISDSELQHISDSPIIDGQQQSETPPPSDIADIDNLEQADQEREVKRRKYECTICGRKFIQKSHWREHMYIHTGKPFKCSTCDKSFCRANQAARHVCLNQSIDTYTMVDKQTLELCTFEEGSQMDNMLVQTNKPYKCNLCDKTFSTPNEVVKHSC

Sequence of Sp1 (recombinant) (P08047 whole entry): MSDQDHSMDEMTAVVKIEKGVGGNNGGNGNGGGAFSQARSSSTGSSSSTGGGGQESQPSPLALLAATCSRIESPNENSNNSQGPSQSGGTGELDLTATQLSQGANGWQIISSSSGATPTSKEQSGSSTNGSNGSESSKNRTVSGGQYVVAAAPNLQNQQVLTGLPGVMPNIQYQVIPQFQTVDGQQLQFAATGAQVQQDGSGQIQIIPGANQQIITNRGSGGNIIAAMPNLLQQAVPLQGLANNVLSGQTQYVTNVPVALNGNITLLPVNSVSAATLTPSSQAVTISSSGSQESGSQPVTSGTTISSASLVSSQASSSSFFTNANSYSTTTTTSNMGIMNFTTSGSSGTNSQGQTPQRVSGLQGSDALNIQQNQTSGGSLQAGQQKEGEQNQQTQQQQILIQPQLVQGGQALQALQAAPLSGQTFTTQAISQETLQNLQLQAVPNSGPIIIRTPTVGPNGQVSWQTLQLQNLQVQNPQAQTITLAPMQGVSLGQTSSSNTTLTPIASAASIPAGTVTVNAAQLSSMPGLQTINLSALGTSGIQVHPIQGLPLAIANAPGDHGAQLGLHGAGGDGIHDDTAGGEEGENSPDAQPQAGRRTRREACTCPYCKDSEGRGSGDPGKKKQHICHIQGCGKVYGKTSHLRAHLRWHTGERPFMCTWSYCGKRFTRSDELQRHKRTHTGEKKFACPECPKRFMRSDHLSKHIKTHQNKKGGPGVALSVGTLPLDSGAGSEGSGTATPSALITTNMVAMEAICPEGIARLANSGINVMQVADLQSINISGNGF

B1: GC-box #3 EMSA probe (dsDNA)
DNA 1: GATCTTTCCCTGCGCGGGGCGGGCGGCCGCAGCCC
DNA 2: GGGCTGCGGCCGCCCGCCCCGCGCAGGGAAAGATC
binding result (Sp1 (recombinant)): binds
binding result (GST-ZFDBD-ZBTB2): binds
